Results reported in patent publication US20150335719A1, “Intravitreal Injection of a Chimeric Phage Endolysin Ply187; Protection from Staphylococcus aureus Endophthalmitis” (priority 2014, published 2015).

Tests used:
[1] = system: S. aureus RN6390 endophthalmitis; experiment: Mouse S. aureus endophthalmitis: histology (H&E) and TUNEL staining of retina; assay type: in vivo, C57BL/6 mice
Method: FIGS. 3A-3E show the effects of intravitreal injection of chimeric Ply187AN-KSH3b on the severity of S. aureus endophthalmitis. The eyes (n=10) of C57BL/6 mice were infected with S. aureus strain RN6390 and following either 6 h or 12 h post-infection, Ply187AN-KSH3b or EB (EB C) was administered by intravitreal injection. FIG. 3A depicts individual eyes assigned clinical scores (range 0 to 4; black dots represent an eye) and presented as mean clinical scores (bar with SEM). […] FIG. 3E depicts the total number of dead cells in the retinal sections that were counted and are presented as mean±SD of the TUNEL positive cells. A student's t test (**, p<0.005) was used for the statistical analysis and comparisons were made between the S. aureus (SA) control, SA+EBC, and SA+Ply187AN-KSH3b-treated group.
The embedding, sectioning, and Hematoxylin and Eosin (H & E) staining was performed by Excalibur Pathology Inc. (Oklahoma City, Okla.). For immunostaining, the eyes were fixed in Tissue-Tek® O.C.T. (Sakura, Torrance, Calif.) and five-micrometer-thick sagittal sections were collected from each eye and mounted onto microscope slides. TUNEL staining was performed on retinal cryo-sections using ApopTag® Fluorescein In situ Apoptosis Detection Kit as per manufacturer's instruction (Millipore, Billerica, Mass.).

[2] = system: S. aureus; experiment: Antimicrobial activity in the presence of calf vitreous humor in vitro; assay type: cell-based, Staphylococcus aureus; settings: calf VH, 10^5 CFU, 2, 4 and 6 h
From the text: FIGS. 4 A, B and C depict the effect of chimeric Ply187AN-KSH3b on bacterial growth in vivo and in the vitreous humor (VH) in vitro and with increasing inoculums in vitro respectively. […] Twenty-four hours after the treatment, the eyes were enucleated, homogenized and the bacterial burden was estimated via serial dilution plating. FIG. 4B depicts a test showing the effect of the vitreous humor on Ply187AN-KSH3b antimicrobial activity where Ply187AN-KSH3b was mixed with calf vitreous humor and inoculated with 10^5 CFU of S. aureus. The survival of the bacteria was enumerated by CFU count at 2, 4 and 6 h of incubation. Statistical analysis was performed using unpaired student's t test (*, p<0.05; **, p<0.005; ***, p<0.0005). […] An increasing number of dilutions (1:10,000 to 1:10) of logarithmic phase of S. aureus (RN6390 strain) were treated with Ply187AN-KSH3b for 1 h followed by CFU enumeration on TSA plates. Statistical analysis was performed using unpaired student's t test (*, p<0.05; **, p<0.005; ***, p<0.0005).
To determine the effect of Vitreous Humor (VH) on antimicrobial activity of chimeric Ply187AN-KSH3b in vitro, bacteria (10^5 CFU) were incubated with chimeric Ply187AN-KSH3b in the presence of calf VH. Following incubation at 37° C. for the desired time, bacterial growth in VH was enumerated by serial dilution plating. […]

[3] = system: retinal function in S. aureus-infected eyes; settings: treatment 6 h post infection, ERG 24 h post treatment
Method: The percentage amplitude of the a- and b-waves retained in S. aureus (SA)-infected, treated and untreated mice were compared to normal uninfected mice and presented as mean±SD (FIG. 7D).
Scotopic ERG was used to determine retinal function following S. aureus infection and chimeric Ply187AN-KSH3b treatment (6 h post infection). The mice (control, infected and infected+treated) were anesthetized 24 h post Ply187AN-KSH3b treatment, maintained at 37° C. using a heat pad, and the pupils were dilated using 1% tropicamide ophthalmic solution. ERGs were recorded following bilateral mydriasis and at least 4 h of dark adaptation. Silver embedded thread eye electrodes (Ocuscience™ LLC, Kansas City, Mo.) were used to record the ERG. Reference needle electrodes (stainless steel subdermal needle electrodes) were placed in anterior scalp and a ground needle electrode was placed in the tail. ERG responses were acquired using an ERG system (Ocuscience™ LLC, Kansas City, Mo.) and analyzed using ERGVIEW 4.380V. Ganzfeld light stimulus was used to present ten 10 ms flashes, with light intensities, increasing from 0.0001 to 100 cd-s/m^2. The ERG a-wave was measured as amplitude between the ERG baseline and the first negative peak, and the ERG b-wave was measured as amplitude between the first negative peak and the first positive peak.

[4] = system: S. aureus strains/isolates RN6390, USA 300, R2932, R2952 and R3000; experiment: Turbidity reduction assay; assay type: cell-based, Staphylococcus aureus; settings: at MIC, measured every 5 min up to 1 h
Method: Error bars represent SEM for three independent experiments performed in triplicates. […] Cells surviving at half (½) of the MIC value were used as an inoculum for each subsequent round of exposure. The change in susceptibility is recorded and presented as fold change resistance from day 1 to 10 of exposure and also after 5 days of growth (without any selection pressure) following the 10th day (represented as 10+5). The data represent means±SEM of two independent experiments performed in triplicate.
To verify and quantify the lytic activity against live S. aureus, we have tested Ply187AN-KSH3b in the Turbidity Reduction Assay. The turbidity assay measures the drop in optical density (OD) resulting from lysis of the target bacteria with the phage endolysin-derived protein. Turbidity reduction assays by chimeric Ply187AN-KSH3b were performed in a 96 well plate as described previously by Becker et al. (2009a, 2009b, supra). Briefly, S. aureus strains/isolates RN6390, USA 300, and clinical isolates R2932, R2952 and R3000 were grown to logarithmic phase (OD600 0.4-0.6) at 37° C. in tryptic Soy broth (TSB). The culture was harvested by centrifugation and the pellet was resuspended in assay buffer (400 mM NaCl, 20 mM Tris HCl, 1% glycerol, pH 7.5). […] The reduction in the turbidity was measured after every 5 min up to 1 h using a micro plate reader. […]

[5] = system: retinal cells; experiment: Cytotoxicity analysis in vivo (retinal cell death); settings: data not shown

B1: Ply187AN-KSH3b: staphylococcal peptidoglycan hydrolase fusion protein: endopeptidase domain of prophage endolysin Ply187 plus SH3b cell wall-binding domain of phage K endolysin LysK (SEQ ID NO:1) (protein)
chain: MALPKTGKPTAKQVVDWAINLIGSGVDVDGYYGRQCWDLPNYIFNRYWNFKTPGNARDMAWYRYPEGFKVFRNTSDFVPKPGDIAVWTGGNYNWNTWGHTGIVVGPSTKSYFYSVDQNWNNSNSYVGSPAAKIKHSYFGVTHFVRPAYKAEPKPTPPLESTPATRPVTGSWKKNQYGTWYKPENATFVNGNQPIVTRIGSPFLNAPVGGNLPAGATIVYDEVCIQAGHIWIGYNAYNGNRVYCPVRTCQGVPPNQIPGVAWGVFKVEHHHHHH
modifications: Chemically Synthesized Fusion Protein
[1]; 1 μg/eye intravitreal
  histological analysis (H&E) of retina: preserved the integrity of the retina
[1]; retinal sections
  TUNEL+ cells (retinal cell death), average: 17.66 TUNEL^+ cells/eye
[2]
  killing activity in presence of vitreous humor (viable count): does not adversely affect the killing activity
[3]
  ERG a- and b-wave amplitudes: no significant decline in a- or b-wave amplitudes
[3]; vs uninfected
  a- and b-wave amplitudes retained: 90-95%
[4]
  reduction in the turbidity of suspension culture: time-dependent reduction in the turbidity
[5]
  retinal cell death in vivo: does not cause retinal cell death
